This is an account of results in publication PMC12045711.

Usually stoichiometry N stands for a count of units in the complex or per binding partner.

Assay [1] addresses Thermoproteota archaeon TasR (TaTasR), TIGR-associated protein with an N-terminal RuvC nuclease domain and a Nop domain (Thermoproteota archaeon isolate LB_CRA_1). The experiment in a line: cryo-EM structure; TasR tigRNA1 RNP (16 uM) mixed with a 60-bp DNA target (8 uM) in 29 mM HEPES-KOH pH 7.9, 149 mM KCl, 5 mM MgCl2; 42°C for 1 hour, then on ice for 3 hours; post-cleavage product complex.

For assay [2], the target named is Thermoproteota archaeon TasR (TaTasR) (Thermoproteota archaeon isolate LB_CRA_1). The experiment in a line: cryo-EM structure; TasR tigRNA1 RNP (16 uM) mixed with 60-bp target DNA (8 uM), 29 mM HEPES-KOH pH 7.9, 149 mM KCl, 5 mM MgCl2, 42 C for 1 h; 2D classification of the final particles with a large box and a 300 A circular mask.

“Thermoproteota archaeon TasR (TaTasR), TIGR-associated protein with an N-terminal RuvC nuclease domain and a Nop domain (enzyme)” gave a stoichiometry N in assay [1] of 2.
“Thermoproteota archaeon TasR (TaTasR) (enzyme)” showed a stoichiometry N in assay [2] of 2.
